In PMC11293393, “ChAHP2 and ChAHP control diverse retrotransposons by complementary activities” (Genes & Development, 2024):

B1: His-ADNP2 (natural protein, human, UniProt Q6IQ32 1-1131, looked up)
chain: MFQIPVENLDNIRKVRKKVKGILVDIGLDSCKELLKDLKGFDPGEKYFHNTSWGDVSLWEPSGKKVRYRTKPYCCGLCKYSTKVLTSFKNHLHRYHEDEIDQELVIPCPNCVFASQPKVVGRHFRMFHAPVRKVQNYTVNILGETKSSRSDVISFTCLKCNFSNTLYYSMKKHVLVAHFHYLINSYFGLRTEEMGEQPKTNDTVSIEKIPPPDKYYCKKCNANASSQDALMYHILTSDIHRDLENKLRSVISEHIKRTGLLKQTHIAPKPAAHLAAPANGSAPSAPAQPPCFHLALPQNSPSPAAGQPVTVAQGAPGSLTHSPPAAGQSHMTLVSSPLPVGQNSLTLQPPAPQPVFLSHGVPLHQSVNPPVLPLSQPVGPVNKSVGTSVLPINQTVRPGVLPLTQPVGPINRPVGPGVLPVSPSVTPGVLQAVSPGVLSVSRAVPSGVLPAGQMTPAGQMTPAGVIPGQTATSGVLPTGQMVQSGVLPVGQTAPSRVLPPGQTAPLRVISAGQVVPSGLLSPNQTVSSSAVVPVNQGVNSGVLQLSQPVVSGVLPVGQPVRPGVLQLNQTVGTNILPVNQPVRPGASQNTTFLTSGSILRQLIPTGKQVNGIPTYTLAPVSVTLPVPPGGLATVAPPQMPIQLLPSGAAAPMAGSMPGMPSPPVLVNAAQSVFVQASSSAADTNQVLKQAKQWKTCPVCNELFPSNVYQVHMEVAHKHSESKSGEKLEPEKLAACAPFLKWMREKTVRCLSCKCLVSEEELIHHLLMHGLGCLFCPCTFHDIKGLSEHSRNRHLGKKKLPMDYSNRGFQLDVDANGNLLFPHLDFITILPKEKLGEREVYLAILAGIHSKSLVPVYVKVRPQAEGTPGSTGKRVSTCPFCFGPFVTTEAYELHLKERHHIMPTVHTVLKSPAFKCIHCCGVYTGNMTLAAIAVHLVRCRSAPKDSSSDLQAQPGFIHNSELLLVSGEVMHDSSFSVKRKLPDGHLGAEDQRHGEEQPPILNADAAPGPEKVTSVVPFKRQRNESRTEGPIVKDEALQILALDPKKYEGRSYEEKKQFLKDYFHKKPYPSKKEIELLSSLFWVWKIDVASFFGKRRYICMKAIKNHKPSVLLGFDMSELKNVKHRLNFEYEP
notes: ADNP2, human, full length, amino acid residues 1-1131; pFast-Bac-derived vector; also called full-length human ADNP2; source: Trichoplusia ni High5 cells (baculovirus), coexpressed with Strep-HP1β; in lysate for the pull-down, Strep-Tactin eluate for SEC-MALS; not shown: His6, N-terminal, kept
B2: Strep-HP1β (natural protein)
chain: not shown
notes: HP1β (CBX1), human, full length, amino acid residues 1-185; pFast-Bac-derived vector; also called full-length human HP1β; source: Trichoplusia ni High5 cells (baculovirus), coexpressed with His-ADNP2; in lysate for the pull-down, Strep-Tactin eluate for SEC-MALS; not shown: Strep tag II, N-terminal, kept

What was measured:
His-CHD4 = target: T1, His-CHD4 (human, UniProt Q14839 1-1912); assay: SEC-MALS; Strep-Tactin eluate, ~4-5 mg/mL, Superose 6 Increase 10/300 GL, 50 mM HEPES-OH pH 7.4, 150 mM NaCl, 0.5 mM TCEP; settings: both partners purified
T1 construct: CHD4, human, full length, amino acid residues 1-1912; pAC8-derived vector; also called full-length human CHD4; source: Trichoplusia ni High5 cells (baculovirus), expressed separately; in lysate for the pull-down, Strep-Tactin eluate for SEC-MALS; not shown: His6, N-terminal, kept

His-ADNP2 = target: B1; assay: pull-down; High5 cell pools (His-ADNP2 + Strep-HP1β coexpressed; His-CHD4 separately) mixed and lysed; cleared lysate over Strep-Tactin sepharose, 50 mM Tris pH 7.5, 300 mM NaCl, 0.1% Triton X-100; eluted with 2.5 mM desthiobiotin; SDS-PAGE and Coomassie staining; settings: partners not purified

T1 sequence (Q14839 whole entry, the tested form may be a part): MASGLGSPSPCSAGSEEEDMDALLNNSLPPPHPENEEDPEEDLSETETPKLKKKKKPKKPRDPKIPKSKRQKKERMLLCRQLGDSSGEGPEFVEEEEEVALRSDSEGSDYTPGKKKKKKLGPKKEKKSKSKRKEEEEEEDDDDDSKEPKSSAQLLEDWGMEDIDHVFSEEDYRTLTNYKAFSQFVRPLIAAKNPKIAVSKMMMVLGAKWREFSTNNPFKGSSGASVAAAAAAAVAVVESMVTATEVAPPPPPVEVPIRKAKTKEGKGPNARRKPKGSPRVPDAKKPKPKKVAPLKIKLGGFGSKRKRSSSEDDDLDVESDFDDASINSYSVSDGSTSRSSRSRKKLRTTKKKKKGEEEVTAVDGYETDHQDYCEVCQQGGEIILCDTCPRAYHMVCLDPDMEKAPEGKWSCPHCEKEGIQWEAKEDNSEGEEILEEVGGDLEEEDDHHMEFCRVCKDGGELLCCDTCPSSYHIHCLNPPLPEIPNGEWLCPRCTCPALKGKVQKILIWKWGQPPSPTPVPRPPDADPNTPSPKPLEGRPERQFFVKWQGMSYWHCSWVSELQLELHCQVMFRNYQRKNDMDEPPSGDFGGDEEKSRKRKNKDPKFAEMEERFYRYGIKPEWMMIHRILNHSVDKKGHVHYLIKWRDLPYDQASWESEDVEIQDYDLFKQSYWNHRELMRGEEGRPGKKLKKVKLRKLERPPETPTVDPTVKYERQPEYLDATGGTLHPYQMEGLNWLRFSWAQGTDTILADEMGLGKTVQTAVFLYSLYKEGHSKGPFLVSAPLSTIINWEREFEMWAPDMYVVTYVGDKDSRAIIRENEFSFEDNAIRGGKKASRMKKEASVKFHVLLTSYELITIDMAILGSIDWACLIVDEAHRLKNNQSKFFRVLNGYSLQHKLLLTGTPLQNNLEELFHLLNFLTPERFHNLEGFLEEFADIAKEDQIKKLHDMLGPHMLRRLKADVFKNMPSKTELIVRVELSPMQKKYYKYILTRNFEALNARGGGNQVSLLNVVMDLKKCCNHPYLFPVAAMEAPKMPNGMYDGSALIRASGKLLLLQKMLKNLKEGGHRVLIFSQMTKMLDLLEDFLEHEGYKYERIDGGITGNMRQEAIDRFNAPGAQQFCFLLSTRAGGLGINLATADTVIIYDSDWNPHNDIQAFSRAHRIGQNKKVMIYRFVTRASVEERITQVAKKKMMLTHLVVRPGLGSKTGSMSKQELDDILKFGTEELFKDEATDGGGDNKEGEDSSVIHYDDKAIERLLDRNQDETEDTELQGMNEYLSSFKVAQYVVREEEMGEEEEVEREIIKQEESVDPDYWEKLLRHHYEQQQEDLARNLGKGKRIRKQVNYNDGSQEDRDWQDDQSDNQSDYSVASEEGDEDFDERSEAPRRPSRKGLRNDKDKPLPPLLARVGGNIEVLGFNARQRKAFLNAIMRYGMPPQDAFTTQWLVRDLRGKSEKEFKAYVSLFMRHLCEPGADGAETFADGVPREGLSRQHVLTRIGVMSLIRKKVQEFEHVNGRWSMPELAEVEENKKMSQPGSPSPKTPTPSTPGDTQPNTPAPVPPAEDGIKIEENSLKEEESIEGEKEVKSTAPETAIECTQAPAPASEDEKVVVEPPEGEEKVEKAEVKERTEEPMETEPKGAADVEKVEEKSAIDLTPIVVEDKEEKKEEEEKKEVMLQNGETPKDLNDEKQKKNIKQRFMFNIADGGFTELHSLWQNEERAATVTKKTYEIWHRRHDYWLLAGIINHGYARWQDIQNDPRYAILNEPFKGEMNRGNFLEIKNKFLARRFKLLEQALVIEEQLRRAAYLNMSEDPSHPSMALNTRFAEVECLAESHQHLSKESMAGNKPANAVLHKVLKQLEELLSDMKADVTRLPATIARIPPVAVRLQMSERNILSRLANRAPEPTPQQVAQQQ

| Binder | binding result (His-CHD4) | binding result (His-ADNP2) |
| --- | --- | --- |
| B1 | binds | – |
| B2 | binds | binds |
